Results: PMC3229523, “Identification of Lactoferricin B Intracellular Targets Using an Escherichia coli Proteome Chip” (PLoS ONE, 2011)
Ends that are not written are not given here. * marks the point of attachment. Biotin = O=C1N[C@H]2[C@H](CS[C@H]2CCCCC(=O)*)N1

Key:
Test in all cases: peptide or protein array; E. coli proteome chip: purified His-tagged proteins printed in duplicate on Fullmoon slides, blocked with 1% BSA; 10 nM N-terminal biotinylated LfcinB with 1% BSA, room temperature, 1 h; detected with DyLight 649-labeled streptavidin, ratio to DyLight 549-labeled anti-His antibody; ProCAT normalisation, local cut-off; triplicate chips
Details in all cases: both partners purified
DinG = target: T1, DinG (E. coli K-12, UniProt P27296 1-716)
T1 construct: DinG, E. coli K-12
T1 sequence (looked up): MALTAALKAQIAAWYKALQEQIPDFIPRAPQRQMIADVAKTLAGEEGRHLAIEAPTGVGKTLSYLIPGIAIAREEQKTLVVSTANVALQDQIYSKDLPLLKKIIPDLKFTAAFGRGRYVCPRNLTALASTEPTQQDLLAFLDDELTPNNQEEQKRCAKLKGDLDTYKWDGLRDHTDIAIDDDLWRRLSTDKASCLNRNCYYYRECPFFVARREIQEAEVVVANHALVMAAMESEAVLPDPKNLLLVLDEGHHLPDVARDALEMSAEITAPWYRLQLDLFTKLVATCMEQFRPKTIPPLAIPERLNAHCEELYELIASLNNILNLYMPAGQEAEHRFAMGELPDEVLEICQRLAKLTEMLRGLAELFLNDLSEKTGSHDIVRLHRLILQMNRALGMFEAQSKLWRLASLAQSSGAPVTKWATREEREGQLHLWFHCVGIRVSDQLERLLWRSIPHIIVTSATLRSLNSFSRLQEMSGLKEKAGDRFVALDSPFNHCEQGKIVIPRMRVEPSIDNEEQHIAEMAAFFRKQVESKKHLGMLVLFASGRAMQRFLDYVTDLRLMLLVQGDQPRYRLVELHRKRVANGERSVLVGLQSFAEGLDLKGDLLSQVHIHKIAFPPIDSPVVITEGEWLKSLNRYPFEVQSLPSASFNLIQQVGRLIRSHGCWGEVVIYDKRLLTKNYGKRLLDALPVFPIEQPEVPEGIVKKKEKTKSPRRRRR

YfbO = target: T2, YfbO (E. coli K-12, UniProt P76485 1-140)
T2 construct: YfbO, E. coli K-12
T2 sequence (looked up): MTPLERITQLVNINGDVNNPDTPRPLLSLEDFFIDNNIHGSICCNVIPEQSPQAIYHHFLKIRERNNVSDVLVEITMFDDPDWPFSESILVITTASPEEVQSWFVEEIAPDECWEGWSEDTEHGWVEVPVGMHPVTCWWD

YbaQ = target: T3, YbaQ (E. coli K-12, UniProt P0A9T6 1-113)
T3 construct: YbaQ, E. coli K-12
T3 sequence (looked up): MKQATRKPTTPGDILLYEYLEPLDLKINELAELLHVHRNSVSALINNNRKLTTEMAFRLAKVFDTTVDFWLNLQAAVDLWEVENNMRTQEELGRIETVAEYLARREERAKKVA

RecC = target: T4, RecC (E. coli K-12, UniProt P07648 1-1122)
T4 construct: RecC, E. coli K-12
T4 sequence (looked up): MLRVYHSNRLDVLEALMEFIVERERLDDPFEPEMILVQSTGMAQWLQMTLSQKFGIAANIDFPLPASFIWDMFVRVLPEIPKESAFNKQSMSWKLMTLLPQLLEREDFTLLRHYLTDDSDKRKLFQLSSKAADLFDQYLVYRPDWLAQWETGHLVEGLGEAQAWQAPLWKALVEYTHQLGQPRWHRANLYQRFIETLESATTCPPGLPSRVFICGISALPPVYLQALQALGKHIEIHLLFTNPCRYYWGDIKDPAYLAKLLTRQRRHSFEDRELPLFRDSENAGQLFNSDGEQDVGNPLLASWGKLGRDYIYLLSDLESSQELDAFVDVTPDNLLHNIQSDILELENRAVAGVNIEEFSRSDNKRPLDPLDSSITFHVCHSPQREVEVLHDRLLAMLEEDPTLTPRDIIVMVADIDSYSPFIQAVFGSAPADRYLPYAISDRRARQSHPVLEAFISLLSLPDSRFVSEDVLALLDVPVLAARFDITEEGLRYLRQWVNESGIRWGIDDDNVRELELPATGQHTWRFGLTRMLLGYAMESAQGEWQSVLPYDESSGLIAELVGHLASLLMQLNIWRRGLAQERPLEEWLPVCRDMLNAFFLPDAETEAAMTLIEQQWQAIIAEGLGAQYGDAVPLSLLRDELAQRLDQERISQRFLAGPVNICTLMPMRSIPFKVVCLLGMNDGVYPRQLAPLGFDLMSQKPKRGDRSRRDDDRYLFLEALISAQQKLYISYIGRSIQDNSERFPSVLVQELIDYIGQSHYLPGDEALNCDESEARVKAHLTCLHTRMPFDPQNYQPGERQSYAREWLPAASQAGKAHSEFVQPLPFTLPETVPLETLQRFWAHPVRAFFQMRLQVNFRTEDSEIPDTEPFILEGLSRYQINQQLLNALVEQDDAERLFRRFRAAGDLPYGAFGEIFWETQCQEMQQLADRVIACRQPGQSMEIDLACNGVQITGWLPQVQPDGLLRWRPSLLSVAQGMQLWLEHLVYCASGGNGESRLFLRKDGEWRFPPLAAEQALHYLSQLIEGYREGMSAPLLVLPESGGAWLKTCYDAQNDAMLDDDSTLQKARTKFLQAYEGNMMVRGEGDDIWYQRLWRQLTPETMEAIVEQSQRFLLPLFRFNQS

Measured: binding result

B1: N-terminal biotinylated Lactoferricin B (peptide, UniProt P24627 36-60, looked up)
peptide: Biotin-FKCRRWQWRMKKLGAPSITCVRRAF
modifications: ends and bridges not checked
notes: lactoferricin B (LfcinB), cationic antimicrobial peptide of 25 amino acids; also called biotinylated LfcinB; biotin-labeled LfcinB; source: bought: Kelowna Inc
binds: DinG | YfbO | YbaQ | RecC
